Laboratory results: a protein production outcome set (Wang et al. 2014)

Assay: label from the status in PepcDB records

Sequence	protein production
MSVCPTNFDEKVECPFVDRKEFTEAFEKAFNNIDQQNYSILVYYGVAGIGKTSLRKELPALLEKHNESDLHTRVIWTSIDFATEQYKQPYKFLEVLSSQLRQKYNVKFNSFDIALATYWKKINPHNPLVKENYSEGSIVHDILDVCDEFVPANLIPNVYNLTKNLPKHYQKWVLKREEDISGLQNLEPTEIYKRLPVYLAHDLADHLQNTSELAVIFIDTYEALWEKERDKGSFNSRDEWLRKLIEKIQKSCLWVICGKESLRWEEVDEDWKNYLDQRKIGKLPEKDALDLLKQCGITEEDIQNVLIESSEGVPYYLELSIDIYRKIKKKKQPTPENFAKVPEGIFCRFVKYLDREEKETLKVLSVPRYWNRELFKILVEKFNTGYPATSFSELHSFSFMDVDDKGKCSMHQLMRKSLKDYQDQDLKKEVHNFMLDFYSNQLKDIDIKEITPEHEIALTEAFYHAKEALEAEDLLKWFISVSDPFNRAAFWQLITPMYEEMLQILEAKHGPEHKDIVTTLNILDVLYYKMGEYKKALQFSERALAIGETILGVQHPDVATSLDNLAGLYESMGNYKQALQLSERALEIYEKVLGPQHRDVAITLDNLAGLYESMGEYEKALIFYQRTIEIKEKVLGPQHSNFATSLDNLAVLYRQMGEYEKALQLSQRALEIYEKVLGPQHPDIATTLNNIALLYDSMGDYQKTLPLYQRALEINEKVFGPQYLGIATTLNNLAGFYRRVGDYEKALSLSQRSLEIDEKVLGSQHPDVARTLNSLALIYENIGDYEKALAFYQRSLDIREKVLGPQHPDVGRTLNNLARLYEIMGDHEKALTLYQRTIEIKEKALGPQHPDVATILNNLAGLHYRIGEYKKALPLYQRALDIVEKKLGQNQPNSVVIKNNYNRLLSKMSENEKK	failed
MSVEIKRVDKHHCLDLVGIFIELERYYFGDKAASEQDLANYLSHQVFSEHSGVKVIAAVEHDKVLGFATYTIMFPAPKLSGQMYMKDLFVSSSARGKGIGLQLMKHLATIAITHNCQRLDWTAESTNPTAGKFYKSIGASLIREKEYYRFEGNGLNKLAKSL	not failed
MSVEKKVNDLLQKMTIEEKVYQLTSILIQDILENDKFSPQKAKEKIPHGIGQITRLAGASNLSPQEAAKTANEIQKFLIENTRLGIPAMIHEESCSGFMAKGATVFPQSIGVACTFDNEIVEELAKVIRTQMKAVGAHQALAPLIDVARDARWGRVEETFGEDPYLVANMAVSYVKGLQGDDIKKGIVATGKHFVGYAMSEGGMNWAPVHIPERELREVYLYPFEVAVKVAGLKSIMPAYHEIDGIPCHANRKLLTDIARNEWGFDGIYVSDYSGVRNLLDYHKSVKTYEEAAALSLWAGLDIELPKIECFTEEFIKALKEGKFDMTLVDAAVKRVLEMKFRLGLFDNPYIKTDGIVELFDNKEQRQLSRRVAQESMVLLKNDNFLPLSKDSKKIAVIGPNANSVRNLLGDYSYPAHIATLEMFFIKEDKGVGNEEEFVRNVINMKSIFEAIKDKVSSNTEVVYAKGCDVNSQDRSGFEEAKKAAADADAVILVVGDKAGLRLDCTSGESRDRASLRLPGVQEDLVKEIVSVNPNTVVVLVNGRPVALDWIMENVKAVLEAWFPGEEGANAVADVLFGDYNPGGKLAISFPRDVGQVPVYYGHKPSGGKSCWHGDYVEMSTKPLLPFGYGLSYTTFEYKNFAIEKEKIGMDESIKISVEIENTGKYEGDEIVQLYTRKEEYLVTRPVKELKGYKRVHLKPGEKKKVVFELYPDLFAFYDYDMNRVVTPGVVEVMIGASSEDIKFTGTFEIVGSKKDAKELKHYFSKVWCE	failed
MSVGTSSAPGARQVPRPLAPRTSGDPADLGIDPDQLPDGLVVADEHGRVVCFNAAAVRITATPAAEALGQLLESALPLEDLEGRRWWQLTDPYGGLAIRVRQPERNLLLPGGREVLVTARYVRAERLGPVHRVVVTLRDTEARRRTERSHAELIATVAHELRSPLTSVKGFTATLLAKWERFTDDQKRLMLETVDADADRVTRLIAELLDISRIDSGRLEVRRQPVDIGAAVGRHIQAYVASGLEADRFLLRLAQPLPDLWADPDKVDQVLSNLLENAVRHGEGTVTIDVTPTASPREGEDTGTSVTVSDEGAGIPEESMNRVFTRFWRGSKRGGTGLGLYIVKGIVEAHGGTITVGRAPGGGAEFRFTLPVAAPAYLT	failed
MSVKAYLELIRVHNVVGSAVSAFMGYVIATTWKFTPLFFLPLLVVSLIAAGGYVINDVYDIEVDKINKPERPLPSGRIAVNIARRFSIVLFAVGLIISIPLGLIPFGFALITIVLLYEYARSLKKLGLVGNFIVALTSALSAYYGGLASGSLLGNFIIPTIYIFFFTLSREFVKGIEDIEGDKRNGVNTLAVKLGEKSTWIIAKIILGILIFTSPLPYFLGFNVIYLIGILALDVLLVYILILHNTIESATKARSLMKIYAIGTLIVFTLGSLRI	failed
